We go through 2 molecules from patent US20050208042A1 (GENETICS INSTITUTE, published 2005).

In test [1] the target is T1, human B7-2 (CD86) expressed on the cell surface (CHO/hB7-2 cells) (human, UniProt P42081 24-329).
T1 construct: whole, on cells; Also used for native B7-2 on human PBL in the MLR row under functional; also called rhB7-2
T1 sequence (looked up): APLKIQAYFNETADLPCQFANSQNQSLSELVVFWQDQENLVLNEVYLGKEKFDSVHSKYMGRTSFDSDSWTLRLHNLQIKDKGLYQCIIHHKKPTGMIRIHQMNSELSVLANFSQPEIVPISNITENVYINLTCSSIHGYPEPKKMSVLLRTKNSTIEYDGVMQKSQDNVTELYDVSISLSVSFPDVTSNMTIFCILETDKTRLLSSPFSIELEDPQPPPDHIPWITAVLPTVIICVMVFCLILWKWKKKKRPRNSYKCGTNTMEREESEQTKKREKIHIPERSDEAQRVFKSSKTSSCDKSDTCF
Nature of the test: 125I direct binding, CHO cells expressing hB7-2 as control for non-specific binding.

Test [2] has as its target T2, human B7-1 (CD80) expressed on the cell surface (CHO/hB7-1 cells) (human, UniProt P33681 35-288).
T2 construct: whole, on cells; Also used for native B7-1 on human PBL in the MLR; also called rhB7-1
T2 sequence (looked up): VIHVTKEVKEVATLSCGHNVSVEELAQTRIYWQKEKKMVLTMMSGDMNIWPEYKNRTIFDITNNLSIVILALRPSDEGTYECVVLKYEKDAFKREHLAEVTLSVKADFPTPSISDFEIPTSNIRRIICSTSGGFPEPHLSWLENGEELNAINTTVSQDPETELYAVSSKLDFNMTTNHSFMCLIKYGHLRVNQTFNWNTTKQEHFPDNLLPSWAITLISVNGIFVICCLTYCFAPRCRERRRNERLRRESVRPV
The experiment in a line: competition binding on CHO/hB7-1 cells: unlabeled competitor against 125I-murine anti-B7-1 tracer, bound cpm. As to the method:
(§1) The relative affinities of the murine and humanized anti-B7-1 (1F1) antibodies for the B7-1 antigen were determined by competitive binding assays. Three-fold serial dilutions of the unlabeled murine or humanized anti-B7-1 mAbs were mixed with a fixed amount of radio-labeled murine anti-B7-1 mAb (¹²⁵I-anti-B7-1, 2800 cpm/fmol; 40,000-50,000 cpm/test in PBS containing 2% fetal calf serum). 1×10⁵ CHO/hB7-1 cells expressing hB7-1 on their surface were added subsequently and the mixture (total volume=200 μL) incubated for 2 hrs at 4° C. with gentle shaking. The cell antibody mixture was then transferred to Sarstedt Micro tubes (Part # 72.702) containing 100 μL of 80% dibutyl phthlate-20% olive oil. After centrifugation in a microfuge, the Sarstedt tubes were plunged into dry ice for several minutes. Cell bound ¹²⁵I-labeled mAb was determined by clipping the cell pellet containing tips of each tube into scintillation vials and counting in a gamma counter. Bound and free counts were determined. The bound counts were plotted against the concentration of the cold competitor mAbs.

Test [3] concerns the target T2, human B7-1 (CD80) expressed on the cell …. Nature of the test: competition binding on CHO cells expressing rhB7-1: unlabeled competitor against 125I-humanized 1F1 tracer, bound/free ratio. As to the method:
(§2) The affinity of the mouse and humanized 1F1 antibodies for the B7-1 antigen was determined by competitive binding with radio-iodinated humanized 1F1 antibody. Three-fold serial dilutions of unlabeled mouse or humanized 1F1 antibodies were mixed with a fixed amount of radio-iodinated humanized 1F1 antibody (40,000-50,000 cpm per test) in PBS containing 2% fetal calf serum, 0.1% sodium azide. 3×10⁴ CHO cells expressing cell surface rhB7-1 were added subsequently and the mixture (in a total volume of 200 μL) was incubated for 2 hr at 4° C. with gentle shaking. The cell-antibody suspension was then transferred to Sarstedt Micro Tubes (part #72.702) containing 100 μL of 80% dibutyl phthalate-20% olive oil. After centrifugation in a microfuge, the Sarstedt tubes were plunged into dry ice for several minutes. Cell-bound ¹²⁵I was determined by clipping the tips of each tube (containing cell pellets) into scintillation vials and counting in a gamma counter. Bound and free counts were determined and the ratio plotted against the concentrations of the cold competitor antibodies according to the method of Berzofsky and Berkower (J. A. Berzofsky and I. J. Berkower, in Fundamental Immunology, W. E. Paul, Raven Press, New York, pp. 595-644 (1984)).

The target is the same in test [4]. The experiment in a line: competitive binding against 125I-humanized 1F1 on CHO cells expressing rhB7-1. As to the method:
as §2

The target is the same in test [5]. The experiment in a line: competitive binding against 125I-murine anti-B7-1 on CHO/hB7-1 cells; murine anti-B7-1 mAb. As to the method: as §1
The target of test [6] is T3, human B7-1Ig (recombinant soluble hB7-1Ig) (human, UniProt P33681 35-242).
T3 construct: extracellular domain; Secreted by CHO cells, purified on protein A, immobilized on the BIACORE chip; not shown: hinge-CH2-CH3 domains of human IgG1 heavy chain
T3 sequence (looked up): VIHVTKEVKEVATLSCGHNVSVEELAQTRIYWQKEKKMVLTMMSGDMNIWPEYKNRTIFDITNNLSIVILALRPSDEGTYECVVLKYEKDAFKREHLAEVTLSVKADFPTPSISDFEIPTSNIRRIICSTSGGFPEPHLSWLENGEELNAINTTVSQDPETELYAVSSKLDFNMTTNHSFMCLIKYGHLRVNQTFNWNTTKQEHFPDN
The experiment in a line: SPR (BIACORE), hB7-1Ig immobilized, bivalent model, mean of three runs. As to the method: (§3) The BIACORE® biosensor (BIACORE®, Uppsalla, Sweden) was used to determine binding kinetics of murine and humanized anti-B7-1 monoclonal antibodies to human B7-1Ig (hB7-1Ig) protein. Human B7-1Ig was immobilized onto the dextran matrix of a BIACORE® sensor chip. Humanized and murine anti-B7-1 mAbs were tested at 200, 100, 50, and 20 nM on the immobilized hB7-1Ig. Each mAb dilution was tested 4 times per run and a total of three separate runs were performed. Anti-human B7-1Ig binding was measured in real time by Surface Plasmon Resonance (SPR) and global analysis was performed using the bivalent binding model in BIA evaluation software (Version 3.1). For each sample, the association (kₐ) dissociation (kd) and equilibrium dissociation constant (KD) were determined.
In general terms: Surface plasmon resonance follows binding to a sensor surface in real time, without labels.

For test [7], the target named is T2, human B7-1 (CD80) expressed on the cell …. The experiment in a line: cell-based or functional assay.
Test [8] concerns the target T3, human B7-1Ig (recombinant soluble …). The experiment in a line: SPR (BIACORE), hB7-1Ig immobilized. As for the experimental part:
as §3

Test [9] deals with T2, human B7-1 (CD80) expressed on the cell …. Nature of the test: competitive binding against 125I-murine anti-B7-1 on CHO/hB7-1 cells; humanized anti-B7-1 mAb. As to the method:
as §1

The target is the same in test [10]. The experiment in a line: direct binding of 125I-labeled antibody to CHO/hB7-1 cells, nonspecific binding (CHO cells with hB7-2) subtracted. As to the method:
Binding assays were begun by plating CHO/hB7-1 cells onto 96 well tissue culture plates at 10,000 cells/well in complete medium and the plates incubated at 37° C. for two days. Adherent cells were washed gently with assay buffer (PBS containing nonfat dry milk and sodium azide). Murine and humanized anti-B7-1 mAbs labeled with ¹²⁵I were serially diluted in assay buffer and incubated with the cells overnight at 4° C. to allow biding to reach equilibrium. Unbound labeled antibody was removed from the cells by a series of gentle washings with assay buffer and the bound ¹²⁵I-labeled antibody was detected using a ¹²⁵I scintillant and detector system. Non-specific binding was determined for each dilution of labeled antibody in an identical manner as described above except that the target CHO cells expressed hB7-2 which is not bound by either the murine or humanized anti-B7-1 mAbs.
The mean value of triplicate determinations minus the non-specific binding was calculated and fit to a hyperbolic saturation binding curve using Graphpad Prism software. […] Both murine and humanized anti-B7-1 mAbs recognize cell surface expressed human B7-1.

In general, EC50 (read off the curve) refers to the concentration that produces a half-maximal response.

B1: murine 1F1 monoclonal antibody (murine anti-human B7-1 mAb) (antibody, V domains shown)
VH: EVHLQQSGAELVRPGALVKLSCKPSGFNIKDYYMHWVKQRPEQGLEWIGWIDPENGNTLYDPKFQGKASITADTSSNTAYLQLSSLTSEDTAVYYCAREGLFFAYWGQGTPVTVSA
VL: EIVLTQSPALMAASPGEKVTITCSVSSSISSSNLHWYQQKSETSPKPWIYGTSNLASGVPVRFSGSGSGTSYSLTISSMEAEDAATYYCQQWSSYPLTFGAGTKLELK
notes: Hybridoma mouse antibody with kappa light chain; also called mouse 1F1; murine anti-B7-1
B1: the binding result in [1] is on record as “no binding”. For the same molecule, the “IC50 (read off the curve)” value in [2] and in test [3] was around 1 nM in each case. Besides, the Ka in [4] is around 1e+09 M⁻¹. Moreover, the Kd in [5] was around 1 nM; in [6], 0.56 nM. In addition, the “IC50 of inhibition of CD28+ human T cell proliferation stimulated with PMA and CHO/hB7-1 cells” value in [7] came to 0.22 nM. In addition, in test [8], the “fold higher binding affinity than the humanized anti-B7-1 mAb” value was 5 fold.

B2: humanized anti-B7-1 mAb (humanized 1F1), isotype not stated in the example (antibody, V domains shown)
VH: EVQLVQSGAEVKKPGASVKVSCKPSGFNIKDYYMHWVRQAPGQGLEWIGWIDPENGNTLYDPKFQGKATITADTSTSTAYMELSSLRSEDTAVYYCAREGLFFAYWGQGTLVTVSS
VL: DIQMTQSPSSLSASVGDRVTITCSVSSSISSSNLHWYQQKPGKAPKPLIYGTSNLASGVPSRFSGSGSGTDYTLTISSLQPEDVATYYCQQWSSYPLTFGQGTKVEIK
notes: Same variable regions as m8; also called hu1F1
For B2, the binding result in [1] is “no binding”. For the same molecule, the “IC50 (read off the curve)” value in test [2] is around 2 nM. Further, the figures for the Kd in test [9] and in test [6] were around 1 nM and 2.8 nM, respectively. Also, the “IC50 of inhibition of CD28+ human T cell proliferation stimulated with PMA and CHO/hB7-1 cells” value in [7] is 0.11 nM. For the same molecule, the “EC50 (read off the curve)” value in test [10] was around 1 nM.
